Broadly, the IC50 is the concentration that inhibits the measured activity by half.

In the test the target is Ab126 antibody. The experiment in a line: direct competition ELISA: 0.1 µg recombinant PCNA on plate, peptide UMPB6 (0.024-2400 ng/well) mixed with Ab126, anti-rabbit IgG-AP, OD 405 nm. Background: ELISA stands for enzyme-linked immunosorbent assay.

For the molecule LGIPEQEY [antigenic peptide UMPB6 (equivalent to PCNA amino acids 126-133)], the IC50 is 0.1 µg/mL.
